From article PMC4144951, “Dissecting the Functional Role of the N-Terminal Domain of the Human Small Heat Shock Protein HSPB6” (PLoS ONE, 2014)

What was measured:
[1] = target: HSPB6 Δ31–35 (human) (UniProt O14558); test: SEC; data not shown; three loaded concentrations, no larger oligomeric species seen; size of the oligomer (dimer)
[2] = target: HSPB6 Δ31–35 (human) (UniProt O14558); test: SEC-coupled SAXS; inline HPLC, Shodex KW404-4F, 20°C, 20 mM HEPES, 150 mM NaCl, pH 7.4, 2.5 mM DTT; 75 µl of 5 mg/ml HSPB6 or equivalent molarity loaded (ΔN11: 111 µl of 3.37 mg/ml); mass at the peak maximum from I0 and Porod volume; number of subunits of the oligomer
[3] = target: HSPB6 Δ31–40 (human) (UniProt O14558); test: as above
[4] = target: human recombinant insulin (human, UniProt P01308 25-54; P01308 90-110); test: cell-based or functional assay
[5] = target: the molecule itself; test: SEC-coupled SAXS; inline HPLC, Shodex KW404-4F, 20°C, 20 mM HEPES, 150 mM NaCl, pH 7.4, 2.5 mM DTT; 75 µl of 5 mg/ml HSPB6 or equivalent molarity loaded (ΔN11: 111 µl of 3.37 mg/ml); mass at the peak maximum from I0 and Porod volume; number of subunits of the oligomer
[6] = target: the molecule itself; test: SEC; 100 µl at 2.5, 5 and 10 mg/ml on Superdex 200 10/300 GL, 4°C, 25 mM HEPES pH 7.5, 150 mM NaCl, 2.5 mM DTT; apparent MW from column calibration; the shift of the peak with loaded concentration is read as self-association of the dimers with each other (dimer to higher species)
[7] = target: T1, human HSPB6, wild type, full length (human), O14558; test: SEC; data not shown; three loaded concentrations, no larger oligomeric species seen; size of the oligomer (dimer); details: remark: other sources report otherwise
T1 chain: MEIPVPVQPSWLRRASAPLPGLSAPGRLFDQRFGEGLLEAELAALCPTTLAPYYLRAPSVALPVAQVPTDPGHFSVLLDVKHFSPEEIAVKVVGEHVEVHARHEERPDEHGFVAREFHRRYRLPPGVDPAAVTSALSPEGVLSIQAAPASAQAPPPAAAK

[8] = target: T1, human HSPB6, wild type, full length …; test: SEC-coupled SAXS; inline HPLC, Shodex KW404-4F, 20°C, 20 mM HEPES, 150 mM NaCl, pH 7.4, 2.5 mM DTT; 75 µl of 5 mg/ml HSPB6 or equivalent molarity loaded (ΔN11: 111 µl of 3.37 mg/ml); mass at the peak maximum from I0 and Porod volume; number of subunits of the oligomer; details: remark: other sources report otherwise
[9] = target: T1, human HSPB6, wild type, full length …; test: SEC; 100 µl at 2.5, 5 and 10 mg/ml on Superdex 200 10/300 GL, 4°C, 25 mM HEPES pH 7.5, 150 mM NaCl, 2.5 mM DTT; apparent MW from column calibration; the shift of the peak with loaded concentration is read as self-association of the dimers with each other (dimer to higher species); details: remark: other sources report otherwise
[10] = target: the molecule itself; test: as above; remark: listed apart in the source
[11] = target: the molecule itself; test: SEC; data not shown; three loaded concentrations, no larger oligomeric species seen; size of the oligomer (dimer)

Sequence of human recombinant insulin (P01308 25-54, chain 1 of 2): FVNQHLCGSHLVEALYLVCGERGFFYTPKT
Sequence of human recombinant insulin (P01308 90-110, chain 2 of 2): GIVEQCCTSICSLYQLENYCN

Molecule	stoichiometry N [5] [subunits]	concentration dependence of apparent MW [6]	further results
HSPB6 Δ31–35 (from UniProt O14558 1-160) (natural protein)	–	–	stoichiometry N [1]: 2; stoichiometry N [2]: 2.2 subunits
HSPB6 Δ31–40 (from UniProt O14558 1-160) (natural protein)	–	–	stoichiometry N [3]: 2 subunits
HSPB6 Δ51–60 (natural protein, human, UniProt O14558 1-160, looked up, HSPB6, human, full-length protein with residues 51-60 deleted; source: E. coli NiCo21 (DE3) with pRARE2, purified (subtractive IMAC, anion exchange, SEC); not shown: SUMO, N-terminal, cleaved) MEIPVPVQPSWLRRASAPLPGLSAPGRLFDQRFGEGLLEAELAALCPTTLALPVAQVPTDPGHFSVLLDVKHFSPEEIAVKVVGEHVEVHARHEERPDEHGFVAREFHRRYRLPPGVDPAAVTSALSPEGVLSIQAAPASAQAPPPAAAK	1.9	0.31 kDa/(mg/ml)	percentage protection against DTT-induced aggregation of insulin (A340 after 90 min, 37°C), insulin:sHSP 1:0.2 to 1:0.05 [4]: ~50 % decrease
HSPB6 Δ61–70 (natural protein, human, UniProt O14558 1-160, looked up, HSPB6, human, full-length protein with residues 61-70 deleted; By SAXS closer to a tetramer than to a dimer; source: E. coli NiCo21 (DE3) with pRARE2, purified (subtractive IMAC, anion exchange, SEC); not shown: SUMO, N-terminal, cleaved) MEIPVPVQPSWLRRASAPLPGLSAPGRLFDQRFGEGLLEAELAALCPTTLAPYYLRAPSVPGHFSVLLDVKHFSPEEIAVKVVGEHVEVHARHEERPDEHGFVAREFHRRYRLPPGVDPAAVTSALSPEGVLSIQAAPASAQAPPPAAAK	3.5	3.4 kDa/(mg/ml)	–
human HSPB6, wild type, full length, O14558 1-160 (natural protein) MEIPVPVQPSWLRRASAPLPGLSAPGRLFDQRFGEGLLEAELAALCPTTLAPYYLRAPSVALPVAQVPTDPGHFSVLLDVKHFSPEEIAVKVVGEHVEVHARHEERPDEHGFVAREFHRRYRLPPGVDPAAVTSALSPEGVLSIQAAPASAQAPPPAAAK	–	–	stoichiometry N [7]: 2; stoichiometry N [8]: 2.2 subunits; concentration dependence of apparent MW [9]: 1.51 kDa/(mg/ml)
HSPB6 F33A (natural protein, human, UniProt O14558 1-160, looked up, HSPB6, human, full-length protein with the point mutation F33A; source: E. coli NiCo21 (DE3) with pRARE2, purified (subtractive IMAC, anion exchange, SEC); not shown: SUMO, N-terminal, cleaved) MEIPVPVQPSWLRRASAPLPGLSAPGRLFDQRAGEGLLEAELAALCPTTLAPYYLRAPSVALPVAQVPTDPGHFSVLLDVKHFSPEEIAVKVVGEHVEVHARHEERPDEHGFVAREFHRRYRLPPGVDPAAVTSALSPEGVLSIQAAPASAQAPPPAAAK	2.3	–	–
HSPB6 F33Y (natural protein, human, UniProt O14558 1-160, looked up, HSPB6, human, full-length protein with the point mutation F33Y; source: E. coli NiCo21 (DE3) with pRARE2, purified (subtractive IMAC, anion exchange, SEC); not shown: SUMO, N-terminal, cleaved) MEIPVPVQPSWLRRASAPLPGLSAPGRLFDQRYGEGLLEAELAALCPTTLAPYYLRAPSVALPVAQVPTDPGHFSVLLDVKHFSPEEIAVKVVGEHVEVHARHEERPDEHGFVAREFHRRYRLPPGVDPAAVTSALSPEGVLSIQAAPASAQAPPPAAAK	1.9	–	–
HSPB6 Q31A (natural protein, human, UniProt O14558 1-160, looked up, HSPB6, human, full-length protein with the point mutation Q31A; Mixture of dimers and what appear to be tetramers; source: E. coli NiCo21 (DE3) with pRARE2, purified (subtractive IMAC, anion exchange, SEC); not shown: SUMO, N-terminal, cleaved) MEIPVPVQPSWLRRASAPLPGLSAPGRLFDARFGEGLLEAELAALCPTTLAPYYLRAPSVALPVAQVPTDPGHFSVLLDVKHFSPEEIAVKVVGEHVEVHARHEERPDEHGFVAREFHRRYRLPPGVDPAAVTSALSPEGVLSIQAAPASAQAPPPAAAK	4.2	1.1 kDa/(mg/ml)	stoichiometry N [10]: ~4
HSPB6 Q31L (natural protein, human, UniProt O14558 1-160, looked up, HSPB6, human, full-length protein with the point mutation Q31L; source: E. coli NiCo21 (DE3) with pRARE2, purified (subtractive IMAC, anion exchange, SEC); not shown: SUMO, N-terminal, cleaved) MEIPVPVQPSWLRRASAPLPGLSAPGRLFDLRFGEGLLEAELAALCPTTLAPYYLRAPSVALPVAQVPTDPGHFSVLLDVKHFSPEEIAVKVVGEHVEVHARHEERPDEHGFVAREFHRRYRLPPGVDPAAVTSALSPEGVLSIQAAPASAQAPPPAAAK	4.3	1.87 kDa/(mg/ml)	–
HSPB6 Δ36–40 (natural protein, human, UniProt O14558 1-160, looked up, HSPB6, human, full-length protein with residues 36-40 deleted; source: E. coli NiCo21 (DE3) with pRARE2, purified (subtractive IMAC, anion exchange, SEC); not shown: SUMO, N-terminal, cleaved) MEIPVPVQPSWLRRASAPLPGLSAPGRLFDQRFGEELAALCPTTLAPYYLRAPSVALPVAQVPTDPGHFSVLLDVKHFSPEEIAVKVVGEHVEVHARHEERPDEHGFVAREFHRRYRLPPGVDPAAVTSALSPEGVLSIQAAPASAQAPPPAAAK	–	1.8 kDa/(mg/ml)	stoichiometry N [11]: 2
HSPB6 Δ11–20 (natural protein, human, UniProt O14558 1-160, looked up, HSPB6, human, full-length protein with residues 11-20 deleted; also called ΔN11–20; source: E. coli NiCo21 (DE3) with pRARE2, purified (subtractive IMAC, anion exchange, SEC); not shown: SUMO, N-terminal, cleaved) MEIPVPVQPSGLSAPGRLFDQRFGEGLLEAELAALCPTTLAPYYLRAPSVALPVAQVPTDPGHFSVLLDVKHFSPEEIAVKVVGEHVEVHARHEERPDEHGFVAREFHRRYRLPPGVDPAAVTSALSPEGVLSIQAAPASAQAPPPAAAK	1.8	0.81 kDa/(mg/ml)	percentage protection against DTT-induced aggregation of insulin (A340 after 90 min, 37°C), insulin:sHSP 1:0.2 to 1:0.05 [4]: ~50 % decrease
HSPB6 Δ21–30 (natural protein, human, UniProt O14558 1-160, looked up, HSPB6, human, full-length protein with residues 21-30 deleted; source: E. coli NiCo21 (DE3) with pRARE2, purified (subtractive IMAC, anion exchange, SEC); not shown: SUMO, N-terminal, cleaved) MEIPVPVQPSWLRRASAPLPQRFGEGLLEAELAALCPTTLAPYYLRAPSVALPVAQVPTDPGHFSVLLDVKHFSPEEIAVKVVGEHVEVHARHEERPDEHGFVAREFHRRYRLPPGVDPAAVTSALSPEGVLSIQAAPASAQAPPPAAAK	2.2	1.29 kDa/(mg/ml)	percentage protection against DTT-induced aggregation of insulin (A340 after 90 min, 37°C), insulin:sHSP 1:0.2 to 1:0.05 [4]: ~50 % decrease
HSPB6 Δ41–50 (natural protein, human, UniProt O14558 1-160, looked up, HSPB6, human, full-length protein with residues 41-50 deleted; source: E. coli NiCo21 (DE3) with pRARE2, purified (subtractive IMAC, anion exchange, SEC); not shown: SUMO, N-terminal, cleaved) MEIPVPVQPSWLRRASAPLPGLSAPGRLFDQRFGEGLLEAAPYYLRAPSVALPVAQVPTDPGHFSVLLDVKHFSPEEIAVKVVGEHVEVHARHEERPDEHGFVAREFHRRYRLPPGVDPAAVTSALSPEGVLSIQAAPASAQAPPPAAAK	2.3	1.92 kDa/(mg/ml)	percentage protection against DTT-induced aggregation of insulin (A340 after 90 min, 37°C), insulin:sHSP 1:0.2 to 1:0.05 [4]: ~50 % decrease
HSPB6 ΔN11 (domain or fragment, human, UniProt O14558 12-160, looked up, HSPB6, human, without its first 11 residues (ΔN10 begins with the sole tryptophan; ΔN11 removes it too); Prone to aggregate; could not be concentrated above about 4-5 mg/ml; also called ΔN11-construct; source: E. coli NiCo21 (DE3) with pRARE2, purified (subtractive IMAC, anion exchange, SEC); not shown: SUMO, N-terminal, cleaved) LRRASAPLPGLSAPGRLFDQRFGEGLLEAELAALCPTTLAPYYLRAPSVALPVAQVPTDPGHFSVLLDVKHFSPEEIAVKVVGEHVEVHARHEERPDEHGFVAREFHRRYRLPPGVDPAAVTSALSPEGVLSIQAAPASAQAPPPAAAK	2.5	–	–
